According to EP4574843A1 (Numab Therapeutics AG, dated 2025):

B1: PRO4710 (IgG4 of scFv PRO3744, 68-18-E11-sc07) (antibody, V domains shown)
VH: QQLVESGGGLVQPGGSLRLSCAASGFSFTNNYYMCWVRQAPGKGLEWIACMLVGAWGNTYYASWANGRFTISKDNSKNTVYLQMNSLRAEDTAVYFCARARDYTWTLGGDPETSGFNLWGQGTLVTVSS
VL: DVQMTQSPSSLSASVGDRVTITCQASQSIGSNLAWYQQKPGKPPKLLIYKGGTLESGVPSRFSGSGSGTDFTLTISSLQPEDFATYYCQSTAGSSRSGNYGYVFGQGTKVEIKR
B2: PRO4672 (37-20-B03-based PDL1-BD), anti-CD47 x PDL1 x LILRB2, (scFv)2-Fc-(scFv)2 (trispecific antibody)
chain 1: DVQMTQSPSSLSASVGDRVTITCQASQSISSWVSWYQQKPGKPPKLLIYRGGYLESGVPSRFSASGSGTDFTLTISSLQPEDFATYYCQSTDSSTYGGAFGCGTKVTVLGGGGGSGGGGSGGGGSGGGGSQQVVESGGGLVQPGGSLRLSCAVSGIDLNSYAMTWVRQAPGKCLEWIGYIGSASSTYYASWASGRFTISKDNSKNTVYLQMNSLRAEDSAVYFCARGSTYINIWGQGTLVKVSSEPKSSDKTHTCPPCPAPELLGGPSVFLFPPKPKDTLMISRTPEVTCVVVDVSHEDPEVKFNWYVDGVEVHNAKTKPREEQYNSTYRVVSVLTVLHQDWLNGKEYKCKVSNKALPAPIEKTISKAKGQPREPQVYTLPPCREEMTKNQVSLSCAVKGFYPSDIAVEWESNGQPENNYKTTPPVLDSDGSFFLVSKLTVDKSRWQQGNVFSCSVMHEALHNHYTQKSLSLSPGKGGGGSGGGGSDVQMTQSPSSLSASVGDRVTITCQASQSIGSNLAWYQQKPGKPPKLLIYKGGTLESGVPSRFSGSGSGTDFTLTISSLQPEDFATYYCQSTAGSSRSGNYGYVFGCGTKVTVLGGGGGSGGGGSGGGGSGGGGSQQLVESGGGLVQPGGSLRLSCAASGFSFTNNYYMCWVRQAPGKCLEWIACMLVGAWGNTYYASWANGRFTISKDNSKNTVYLQMNSLRAEDSAVYFCARARDYTWTLGGDPETSGFNLWGQGTLVKVSS
chain 2: not shown
B3: PRO5052 (PRO4672 with 33-03-G02-based PDL1-BD), anti-CD47 x PDL1 x LILRB2, (scFv)2-Fc-(scFv)2 (trispecific antibody)
chain 1: B2 chain 1
chain 2: not shown
B4: PRO4687 (37-20-B03-based PDL1-BD), anti-CD47 x PDL1 x LILRB2 (trispecific antibody, human IgG1, kappa)
chain: B2 chain 1
heavy: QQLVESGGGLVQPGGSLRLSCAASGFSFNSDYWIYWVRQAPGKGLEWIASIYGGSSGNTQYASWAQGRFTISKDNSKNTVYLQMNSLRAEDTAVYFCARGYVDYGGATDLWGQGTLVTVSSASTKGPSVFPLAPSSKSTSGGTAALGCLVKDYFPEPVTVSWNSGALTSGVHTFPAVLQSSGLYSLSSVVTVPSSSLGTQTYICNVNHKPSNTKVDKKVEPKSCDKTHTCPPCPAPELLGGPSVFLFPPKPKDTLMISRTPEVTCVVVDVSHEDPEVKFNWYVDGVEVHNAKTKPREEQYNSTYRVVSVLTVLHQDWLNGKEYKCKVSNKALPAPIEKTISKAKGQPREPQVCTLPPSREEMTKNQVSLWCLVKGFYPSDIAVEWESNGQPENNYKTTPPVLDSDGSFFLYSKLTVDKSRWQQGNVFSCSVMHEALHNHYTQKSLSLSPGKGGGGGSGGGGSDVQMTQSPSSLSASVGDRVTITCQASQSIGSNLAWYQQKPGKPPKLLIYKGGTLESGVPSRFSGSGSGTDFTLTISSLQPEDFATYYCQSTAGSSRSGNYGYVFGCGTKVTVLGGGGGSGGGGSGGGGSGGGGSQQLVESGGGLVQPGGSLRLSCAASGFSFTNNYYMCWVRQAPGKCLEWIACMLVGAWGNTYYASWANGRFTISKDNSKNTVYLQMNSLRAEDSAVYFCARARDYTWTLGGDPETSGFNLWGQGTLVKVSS
light: DIQMTQSPSSLSASVGDRVTITCQASQSIGTYLAWYQQKPGKPPKLLIYRGGILASGVPSRFSGSGSGTDFTLTISSLQPEDFATYYCQSNFYSDSTTIGPNAFGQGTKVEIKRTVAAPSVFIFPPSDEQLKSGTASVVCLLNNFYPREAKVQWKVDNALQSGNSQESVTEQDSKDSTYSLSSTLTLSKADYEKHKVYACEVTHQGLSSPVTKSFNRGEC
B5: PRO5055 (PRO4687 with 33-03-G02-based PDL1-BD), anti-CD47 x PDL1 x LILRB2 (trispecific antibody, human IgG1, kappa)
chain: B2 chain 1
heavy: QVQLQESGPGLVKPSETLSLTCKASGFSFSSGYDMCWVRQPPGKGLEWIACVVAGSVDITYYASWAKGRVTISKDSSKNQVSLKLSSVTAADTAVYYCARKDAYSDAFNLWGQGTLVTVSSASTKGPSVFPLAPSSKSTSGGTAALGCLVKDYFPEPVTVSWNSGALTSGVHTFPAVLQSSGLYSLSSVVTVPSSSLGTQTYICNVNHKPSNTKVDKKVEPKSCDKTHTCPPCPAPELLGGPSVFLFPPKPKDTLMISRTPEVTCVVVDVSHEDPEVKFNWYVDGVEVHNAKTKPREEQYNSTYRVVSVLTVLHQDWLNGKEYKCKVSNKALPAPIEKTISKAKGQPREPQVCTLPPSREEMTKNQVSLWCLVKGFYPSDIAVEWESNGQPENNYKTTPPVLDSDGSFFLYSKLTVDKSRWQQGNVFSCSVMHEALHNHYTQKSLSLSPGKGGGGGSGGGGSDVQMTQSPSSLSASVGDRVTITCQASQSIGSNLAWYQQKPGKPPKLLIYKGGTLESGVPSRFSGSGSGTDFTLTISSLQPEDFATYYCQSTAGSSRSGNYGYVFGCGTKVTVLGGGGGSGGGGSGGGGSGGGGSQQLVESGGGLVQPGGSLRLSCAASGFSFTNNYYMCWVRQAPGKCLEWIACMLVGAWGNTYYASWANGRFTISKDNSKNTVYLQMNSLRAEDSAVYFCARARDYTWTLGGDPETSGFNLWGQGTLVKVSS
light: DIQMTQSPSSLSASVGDRVTITCQASQSINDYLAWYQQKPGKAPKLLIYKGGTLASGVPSRFSGSGSGTDFTLTISSLQPEDFATYYCQQGYIITDIDNVFGQGTKVEIKRTVAAPSVFIFPPSDEQLKSGTASVVCLLNNFYPREAKVQWKVDNALQSGNSQESVTEQDSKDSTYSLSSTLTLSKADYEKHKVYACEVTHQGLSSPVTKSFNRGEC
B6: PRO3744, scFv (VL-linker-VH) 68-18-E11-sc07_(VL_A67G_S68G_T141C; VH_G51C_T101S_T146K) (scFv)
scFv: DVQMTQSPSSLSASVGDRVTITCQASQSIGSNLAWYQQKPGKPPKLLIYKGGTLESGVPSRFSGSGSGTDFTLTISSLQPEDFATYYCQSTAGSSRSGNYGYVFGCGTKVTVLGGGGGSGGGGSGGGGSGGGGSQQLVESGGGLVQPGGSLRLSCAASGFSFTNNYYMCWVRQAPGKCLEWIACMLVGAWGNTYYASWANGRFTISKDNSKNTVYLQMNSLRAEDSAVYFCARARDYTWTLGGDPETSGFNLWGQGTLVKVSS
B7: PRO3697, scFv (VL-linker-VH) 69-06-G04-sc05_(VL_A67G_S68G; VH_T101S_L146K) (scFv)
scFv: AFQLTQSPSSLSASVGDRVTITCQASQSIGTYLAWYQQKPGKPPKLLIYRGGTLASGVPSRFSGSGSGTDFTLTISSLQPEDFATYYCQSYDSSNTFGTGTKVTVLGGGGGSGGGGSGGGGSGGGGSQEQLVESGGGLVQPGRSLRLSCAASGFDLSADYMCWVRQAPGKGLEWIACIYIDDDNTYYATWAKGRFTISKDNSKNTVYLQMNSLRAEDSAVYFCARGYGVYTGAITYFTLWGQGTLVKVSS
B8: PRO3696, scFv (VL-linker-VH) 69-01-E02-sc06_(VL_A67G_S68G; VH_T101S_L146K) (scFv)
scFv: DVQMTQSPSSLSASVGDRVTITCQASQSIGLNLAWYQQKPGKPPKLLIYAGGYLASGVSSRFSGSGSGTDFTLTISSLQPEDFATYYCQSTYDGSSFVFAFGTGTKVTVLGGGGGSGGGGSGGGGSGGGGSQEQLVESGGGLVQPGGSLRLSCAASGFSFSSSSYMCWVRQAPGKGLEWIACMVTGSSDDTDYASWAKGRFTISKDNSKNTVYLQMNSLRAEDSAVYFCARAGSAPLWGQGTLVKVSS

target: T1, LILRB2 on human monocyte-derived macrophages (HMDM) (human, UniProt Q8N423 22-597); test: cell-based or functional assay
T1 sequence (Q8N423 22-597): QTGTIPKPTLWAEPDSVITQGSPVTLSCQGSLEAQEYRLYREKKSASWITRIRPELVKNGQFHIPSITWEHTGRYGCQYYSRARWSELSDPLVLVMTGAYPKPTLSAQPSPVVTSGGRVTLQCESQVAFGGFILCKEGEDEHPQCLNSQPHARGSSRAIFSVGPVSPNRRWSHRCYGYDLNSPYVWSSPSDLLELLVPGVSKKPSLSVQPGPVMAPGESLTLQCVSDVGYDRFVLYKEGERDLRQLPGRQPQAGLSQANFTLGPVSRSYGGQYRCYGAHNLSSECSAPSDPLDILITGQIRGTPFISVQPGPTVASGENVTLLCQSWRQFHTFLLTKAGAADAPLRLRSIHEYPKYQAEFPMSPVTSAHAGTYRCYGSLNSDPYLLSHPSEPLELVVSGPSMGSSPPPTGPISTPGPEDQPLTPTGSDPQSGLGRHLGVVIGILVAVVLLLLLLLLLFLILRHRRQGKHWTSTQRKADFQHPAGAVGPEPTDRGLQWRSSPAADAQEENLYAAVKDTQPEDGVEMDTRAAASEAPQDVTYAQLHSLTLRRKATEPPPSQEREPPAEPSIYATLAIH

| IL-1β EC50 [nM], LPS-driven cytokine secretion by HMDM | IL-6 EC50 [nM], LPS-driven cytokine secretion by HMDM | TNF-α EC50 [nM], LPS-driven cytokine secretion by HMDM | Binder |
| --- | --- | --- | --- |
| 0.248 nM | 0.153 nM | 0.169 nM | B1 |
| 0.096 nM | 0.078 nM | 0.123 nM | B2 |
| 0.082 nM | 0.077 nM | 0.117 nM | B3 |
| 0.205 nM | 0.097 nM | 0.175 nM | B4 |
| 0.0705 nM | 0.063 nM | 0.141 nM | B5 |

target: T1, LILRB2 on human monocyte-derived …; test: cell-based or functional assay; remark: another data set of the same source

| CD86 EC50 [nM], re-polarization of M2 macrophages | CD163 EC50 [nM], re-polarization of M2 macrophages | CD206 EC50 [nM], re-polarization of M2 macrophages | IL-1β EC50 [nM], LPS-driven cytokine secretion by HMDM | IL-6 EC50 [nM], LPS-driven cytokine secretion by HMDM | TNF-α EC50 [nM], LPS-driven cytokine secretion by HMDM | Binder |
| --- | --- | --- | --- | --- | --- | --- |
| 0.117 nM | 0.107 nM | 0.136 nM | 0.779 nM | 0.803 nM | 1.1 nM | B6 |
| 0.214 nM | 0.173 nM | 0.512 nM | 0.279 nM | 0.45 nM | 2.2 nM | B7 |
| 0.243 nM | 0.371 nM | 0.587 nM | 0.446 nM | 0.804 nM | 0.891 nM | B8 |
